Tested on: AdV-β-Gal
Test: AdV-β-Gal transduction of transfected CAR-deficient CHO-K1 cells
Format: cell-based, Chinese hamster
Details: CHO-K1 transfected with CAR^Ex8, MAGI-1 and PDZ domain plasmids, MOI 100
Description: CAR-deficient CHO-K1 cells were A) single, B) double, or C) triple transfected with plasmids encoding CAR^Ex8, MAGI-1 (black bars), PDZ1 domain (dotted bars), or PDZ3 domain (white bars), and balanced with empty pcDNA3.1 plasmid, followed by AdV-β-Gal (MOI 100) transduction. CHO-K1 cells were double transfected with CAR^Ex8 and pcDNA3.1, MAGI-1, PDZ3, or PDZ1 and analyzed for D) total CAR^Ex8 protein or E) cell-surface biotinylated CAR^Ex8 protein expression. Quantification of at least three individual experiments is shown in all bar graphs. *p<0.05.

Molecule | Adenovirus infection (AdV-β-Gal transduction)
MAGI-1 PDZ3 domain: MAGI-1 PDZ3 decoy domain, expressed from transfected plasmid in CHO-K1 cells (protein, PEPTIDE WILL BE CREATED USING CONVENTIONAL MEANS, MAGI-1 PDZ3 decoy domain, expressed from transfected plasmid in CHO-K1 cells) KETGFGFRILGGNEPGEPIYIGHIVPLGAADTDGRLRSGDELICVDGTPVIGKSHQLVVQLMQQAAKQGHVNLTVR | decreases
PDZ1 domain: MAGI-1 PDZ1 decoy domain, expressed from transfected plasmid in CHO-K1 cells (protein, PEPTIDE WILL BE CREATED USING CONVENTIONAL MEANS, MAGI-1 PDZ1 decoy domain, expressed from transfected plasmid in CHO-K1 cells) RKSSRGFGFTVVGGDEPDEFLQIKSLVLDGPAALDGKMETGDVIVSVNDTCVLGHTHAQVVKIFQSIP | inhibits MAGI-1-mediated CAR^Ex8 suppression to allow adenovirus infection
